Measurements taken from patent US20220323561A1 (ENTEROME S A, published 2022).

target: T1, HLA-A*0201 molecule expressed on human T2 cells (human); experiment: T2 cells (HLA-A*0201), anti-HLA-A2 flow cytometry
T1 construct: also called HLA-A2

| binding result | Binder |
| --- | --- |
| binds | YMNSLSLAL (Printed as YMNSLSLAL) [MS4A1-B42] |
| binds | ILAFVPLYL [CD37-B12] |
| binds | VLAFVPLGV [CD37-B15] |
| binds | FLAFVPLDV [CD37-B14] |
| binds | VLFGAPAYL [TNFRSF13C-B13] |

Second part, the binder before the results:

| Binder | binding result |
| --- | --- |
| FLFGAPASA [TNFRSF13C-B11] | binds |
| RVFEHPELV [CD22-B13] | binds |
| LLFGAPAGV [TNFRSF13C-B12] | binds |
| AMNSLSLTV [MS4A1-B43] | binds |
